According to the supplement of paper PMC11246515:
± gives the standard deviation of the averaged measurements.

Experiment: total protein half-life in vivo (active degradation + dilution); higher = more stable protein
[1] = E. coli NCM3722 delta-clpP, growth: N-lim chemostat, doubling time 6 h
[2] = E. coli NCM3722 delta-hslV, growth: N-lim chemostat, doubling time 6 h
[3] = E. coli NCM3722 delta-lon, growth: N-lim chemostat, doubling time 6 h
[4] = wild type E. coli NCM3722, growth: C-lim chemostat, doubling time 12 h
[5] = wild type E. coli NCM3722, growth: N-lim chemostat, doubling time 6 h
[6] = wild type E. coli NCM3722, growth: N-lim chemostat, doubling time 12 h
[7] = wild type E. coli NCM3722, growth: P-lim chemostat, doubling time 12 h
[8] = E. coli NCM3722 delta-smpB, growth: N-lim chemostat, doubling time 6 h
[9] = wild type E. coli NCM3722, growth: C-lim chemostat, doubling time 3 h
[10] = wild type E. coli NCM3722, growth: C-lim chemostat, doubling time 6 h
[11] = E. coli NCM3722 delta-clpP delta-lon delta-hslV, growth: N-lim chemostat, doubling time 6 h
[12] = wild type E. coli NCM3722, growth: P-lim chemostat, doubling time 6 h

Sequence	total protein half-life in vivo [1]	total protein half-life in vivo [2]	total protein half-life in vivo [3]	total protein half-life in vivo [4]	total protein half-life in vivo [5]	total protein half-life in vivo [6]	total protein half-life in vivo [7]	total protein half-life in vivo [8]	total protein half-life in vivo [9]	total protein half-life in vivo [10]	total protein half-life in vivo [11]	total protein half-life in vivo [12]
MLHPRARTMLLLSLPAVAIGIASSLILIVVMKIASVLQNLLWQRLPGTLGIAQDSPLWIIGVLTLTGIAVGLVIRFSQGHAGPDPACEPLIGAPVPPSALPGLIVALILGLAGGVSLGPEHPIMTVNIALAVAIGARLLPRVNRMEWTILASAGTIGALFGTPVAAALIFSQTLNGSSEVPLWDRLFAPLMAAAAGALTTGLFFHPHFSLPIAHYGQMEMTDILSGAIVAAIAIAAGMVAVWCLPRLHAMMHQMKNPVLVLGIGGFILGILGVIGGPVSLFKGLDEMQQMVANQAFSTSDYFLLAVIKLAALVVAAASGFRGGRIFPAVFVGVALGLMLHEHVPAVPAAITVSCAILGIVLVVTRDGWLSLFMAAVVVPNTTLLPLLCIVMLPAWLLLAGKPMMMVNRPKQQPPHDNV	6.28 h	7.8 h	5.98 h	11.1 h	6.78 h	12.5 h	> 16 h					
MKIKTILTPVTCALLISFSAHAANADNYKNVINRTGAPQYMKDYDYDDHQRFNPFFDLGAWHGHLLPDGPNTMGGFPGVALLTEEYINFMASNFDRLTVWQDGKKVDFTLEAYSIPGALVQKLTAKDVQVEMTLRFATPRTSLLETKITSNKPLDLVWDGELLEKLEAKEGKPLSDKTIAGEYPDYQRKISATRDGLKVTFGKVRATWDLLTSGESEYQVHKSLPVQTEINGNRFTSKAHINGSTTLYTTYSHLLTAQEVSKEQMQIRDILARPAFYLTASQQRWEEYLKKGLTNPDATPEQTRVAVKAIETLNGNWRSPGGAVKFNTVTPSVTGRWFSGNQTWPWDTWKQAFAMAHFNPDIAKENIRAVFSWQIQPGDSVRPQDVGFVPDLIAWNLSPERGGDGGNWNERNTKPSLAAWSVMEVYNVTQDKTWVAEMYPKLVAYHDWWLRNRDHNGNGVPEYGATRDKAHNTESGEMLFTVKKGDKEETQSGLNNYARVVEKGQYDSLEIPAQVAASWESGRDDAAVFGFIDKEQLDKYVANGGKRSDWTVKFAENRSQDGTLLGYSLLQESVDQASYMYSDNHYLAEMATILGKPEEAKRYRQLAQQLADYINTCMFDPTTQFYYDVRIEDKPLANGCAGKPIVERGKGPEGWSPLFNGAATQANADAVVKVMLDPKEFNTFVPLGTAALTNPAFGADIYWRGRVWVDQFWFGLKGMERYGYRDDALKLADTFFRHAKGLTADGPIQENYNPLTGAQQGAPNFSWSAAHLYMLYNDFFRKQ								6.15 h				
MKNIVPDYRLDMVGEPCPYPAVATLEAMPQLKKGEILEVVSDCPQSINNIPLDARNHGYTVLDIQQDGPTIRYLIQK [P0AA31]				6.03 h					3.04 ± 0.69 h	5.2 ± 0.98 h		
MPKLGMQSIRRRQLIDATLEAINEVGMHDATIAQIARRAGVSTGIISHYFRDKNGLLEATMRDITSQLRDAVLNRLHALPQGSAEQRLQAIVGGNFDETQVSSAAMKAWLAFWASSMHQPMLYRLQQVSSRRLLSNLVSEFRRELPREQAQEAGYGLAALIDGLWLRAALSGKPLDKTRANSLTRHFITQHLPTD	4.25 h		4.46 h		4.99 h						4.85 ± 0.33 h	
MISDSKLLASAAWDAQSLNELKAKAGEDPAANIRPVARQVEGMFVQMMLKSMRDALPKDGLFSSEHTRLYTSMYDQQIAQQMTAGKGLGLAEMMVKQMTPEQPLPEESTPAAPMKFPLETVVRYQNQALSQLVQKAVPRNYDDSLPGDSKAFLAQLSLPAQLASQQSGVPHHLILAQAALESGWGQRQIRRENGEPSYNLFGVKASGNWKGPVTEITTTEYENGEAKKVKAKFRVYSSYLEALSDYVGLLTRNPRYAAVTTAASAEQGAQALQDAGYATDPHYARKLTNMIQQMKSISDKVSKTYSMNIDNLF									0.391 h			
MIWKRKITLEALNAMGEGNMVGFLDIRFEHIGDDTLEATMPVDSRTKQPFGLLHGGASVVLAESIGSVAGYLCTEGEQKVVGLEINANHVRSAREGRVRGVCKPLHLGSRHQVWQIEIFDEKGRLCCSSRLTTAIL	3.39 h	4.22 h	4.14 h		4.23 h	9.08 ± 3.8 h	10.7 h	3.73 ± 0.23 h	2.75 ± 0.11 h		4.78 h	6.54 h
MSTLEPAAQSKPPGGFKLWLSQLQMKHGRKLVIALPYIWLILLFLLPFLIVFKISLAEMARAIPPYTELMEWADGQLSITLNLGNFLQLTDDPLYFDAYLQSLQVAAISTFCCLLIGYPLAWAVAHSKPSTRNILLLLVILPSWTSFLIRVYAWMGILKNNGVLNNFLLWLGVIDQPLTILHTNLAVYIGIVYAYVPFMVLPIYTALIRIDYSLVEAALDLGARPLKTFFTVIVPLTKGGIIAGSMLVFIPAVGEFVIPELLGGPDSIMIGRVLWQEFFNNRDWPVASAVAIIMLLLLIVPIMWFHKHQQKSVGEHG	4.75 ± 1.4 h			12 ± 1.7 h	5.38 h	10.6 ± 0.24 h	13.2 ± 1.9 h	5 h		5.16 ± 0.14 h	6.86 h	6.7 h
MNNHFGKGLMAGLKATHADSAVNVTKFCADYKRGFVLGYSHRMYEKTGDRQLSAWEAGILTRRYGLDKEMVMDFFRENNSCSTLRFFMAGYRLEN											4.99 ± 0.16 h	
MNHSETITIECTINGMPFQLHAAPGTPLSELLREQGLLSVKQGCCVGECGACTVLVDGTAIDSCLYLAAWAEGKEIRTLEGEAKGGKLSHVQQAYAKSGAVQCGFCTPGLIMATTAMLAKPREKPLTITEIRRGLAGNLCRCTGYQMIVNTVLDCEKTK		1.29 h		3.5 ± 0.34 h			3.76 h	1.2 h	1.46 ± 0.069 h	2.29 ± 0.2 h	4.15 h	
